The source of these data is article PMC5117854, “Functional asymmetry and electron flow in the bovine respirasome” (eLife, 2016).

Experiment [1] deals with T1, subunit 1 of complex III (bovine (endogenous in heart …, UniProt P31800 35-480)).
T1 construct: complex III subunit 1, bovine heart; stood in the assay as a subunit of the complex III dimer within the respirasome; also called subunit 1 of the bc1 complex; source: endogenous, bovine heart mitochondria; part of the supercomplex I1III2IV1 purified in amphipol A8-35
T1 sequence (looked up): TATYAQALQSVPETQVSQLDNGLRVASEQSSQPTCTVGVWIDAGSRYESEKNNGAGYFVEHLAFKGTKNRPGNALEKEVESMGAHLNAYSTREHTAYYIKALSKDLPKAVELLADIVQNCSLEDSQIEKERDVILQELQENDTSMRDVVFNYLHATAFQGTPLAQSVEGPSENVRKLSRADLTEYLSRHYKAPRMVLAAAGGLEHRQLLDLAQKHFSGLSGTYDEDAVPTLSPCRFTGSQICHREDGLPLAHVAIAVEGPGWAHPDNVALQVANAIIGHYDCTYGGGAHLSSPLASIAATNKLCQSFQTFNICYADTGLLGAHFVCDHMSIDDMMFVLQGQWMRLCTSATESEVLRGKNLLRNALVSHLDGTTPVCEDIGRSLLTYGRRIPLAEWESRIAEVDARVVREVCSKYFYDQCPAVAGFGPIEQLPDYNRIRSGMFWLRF
Put plainly: cryo-EM structure; class 1 map of supercomplex I1III2IV1 (17,094 particles, 9.1 Å; transmembrane region 8.6 Å); native supercomplex co-purified from bovine heart mitochondria (PCC-a-M, then amphipol A8-35, density gradient); atomic models of complexes I, III and IV docked. To be noted: both partners purified.

For experiment [2], the target named is T2, subunit ND5 of complex I (bovine (endogenous in heart …, UniProt P03920 1-606)).
T2 construct: complex I core subunit ND5, bovine heart; stood in the assay as a subunit of complex I within the respirasome; source: endogenous, bovine heart mitochondria; part of the supercomplex I1III2IV1 purified in amphipol A8-35
The description is as above. To be noted: both partners purified.

T2 sequence (P03920 whole entry, one chain of several): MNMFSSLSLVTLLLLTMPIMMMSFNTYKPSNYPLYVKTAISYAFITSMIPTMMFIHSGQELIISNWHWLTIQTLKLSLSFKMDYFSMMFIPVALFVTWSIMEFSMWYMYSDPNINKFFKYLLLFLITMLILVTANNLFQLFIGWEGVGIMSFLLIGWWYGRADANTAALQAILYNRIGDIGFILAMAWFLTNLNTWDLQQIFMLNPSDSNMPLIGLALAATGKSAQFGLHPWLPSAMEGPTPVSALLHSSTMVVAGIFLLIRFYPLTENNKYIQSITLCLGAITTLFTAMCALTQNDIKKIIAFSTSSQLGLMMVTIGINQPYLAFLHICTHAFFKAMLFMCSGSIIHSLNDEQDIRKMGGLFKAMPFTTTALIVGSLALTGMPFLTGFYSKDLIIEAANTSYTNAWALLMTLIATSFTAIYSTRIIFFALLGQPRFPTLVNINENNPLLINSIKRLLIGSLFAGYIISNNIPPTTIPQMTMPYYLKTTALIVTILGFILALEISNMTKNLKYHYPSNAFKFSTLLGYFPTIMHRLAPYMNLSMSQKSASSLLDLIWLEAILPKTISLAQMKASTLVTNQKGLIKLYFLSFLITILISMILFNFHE

B1: COX7A1 of cytochrome c oxidase (complex IV) (natural protein, UniProt P07470 22-80, looked up)
chain: FENRVAEKQKLFQEDNGLPVHLKGGATDNILYRVTMTLCLGGTLYSLYCLGWASFPHKK
notes: complex IV subunit COX7A1, bovine heart; stood in the assay as a subunit of complex IV within the respirasome; source: endogenous, bovine heart mitochondria; part of the supercomplex I1III2IV1 purified in amphipol A8-35
As to B1, in experiment [1], the binding result is reported as “binds”.

B2: complex IV subunit COX7C (natural protein, UniProt P00430 17-63, looked up)
chain: SHYEEGPGKNIPFSVENKWRLLAMMTLFFGSGFAAPFFIVRHQLLKK
notes: complex IV subunit COX7C, bovine heart; stood in the assay as a subunit of complex IV within the respirasome; source: endogenous, bovine heart mitochondria; part of the supercomplex I1III2IV1 purified in amphipol A8-35
Consider B2, for which the binding result in experiment [2] was “binds”.
